Data published in the RNAGym collection of RNA variant scans (doi:10.1073/pnas.2313332121).

B1: TPR t1 (parent)
chain: GACCAAUCUGCCCUCAGAGCUCGAGAACAUCUUCGGAUGCAGAGGAGGCAGGCUUCGGUGGCGCGAUAGCGCCAACGUCCUCAACCUCCAAUGCAUCCCACCACAUGAUGAUGCCUGAAGAGCCUUGGUUUUUUG

Variants of: B1
Test: polymerase ribozyme fitness, log enrichment relative to wild type (log ratio); higher = more active; in vitro selection for triplet polymerase activity
Summary of the method: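 Input and output libraries were sequenced on Illumina after a single in vitro selection round, run in triplicate on PCR-built, transcribed mutant libraries of each subunit of a heterodimeric triplet polymerase ribozyme. Selection annealed libraries to a biotinylated primer, the partner subunit and triplets, incubated them frozen at −7 °C, then gel-excised extended constructs for streptavidin-bead capture and RT-PCR. Genotypes with ≥10 input reads and ≥1 read per output were kept. Fitness is the logarithm, taken in base 2, of genotype enrichment divided by wild-type enrichment, using inverse-variance-weighted replicate averages.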

In order of rising “polymerase ribozyme fitness (log ratio)” value:
1. G17A C49A G58A G110C  -6.79
2. G17U A27U C40A C64A C85A G117C G127A U129A  -6.49
3. A16G G44U G113C A119C G135A  -6.45
4. A16U G47U G52U G65U C115U G117C  -6.26
5. G17U U78A C79G C115U  -6.15
6. G17C U54G C94A U112G  -6.12
7. A18G C20A C64A A111G U112A  -6.09
8. G17C C34U G42U C70A C123A  -6.07
9. C15U U78C A83C C97A C101A U109A  -5.99
10. A18C U109A  -5.77
11. G17A C62G  -5.69
12. A16C G47U A119U  -5.65
13. A16U U21C G60A G71U U112G G113A  -5.57
14. A16U G69A C82G C97A C114U U133G  -5.51
15. A18C U32C A37U A50U G60A G113A  -5.4
16. A16U C20A C56A  -5.28
17. G17A U109A G117A C124A  -5.22
18. C15U G52A C102G C124A  -5.21
19. G17A G77U U78A A118U  -4.97
20. A18C A27G A43U G44U G61A  -4.83
21. A18U A41C C88U U92C C104U A111C U125G U132C  -4.68
22. A18C G45A C53U  -4.6
23. G17U U21A C62G A75C C124U  -4.5
24. A18G A43U G71U U87C  -4.47
25. A16U A27U G61A  -4.42
26. A16C G44U U125G  -4.42
27. G17U A29U C72U  -4.39
28. A16C G44U U78C  -4.35
29. A16U G45C C56G A83C  -4.35
30. A18G A43U C101G G120A  -4.32
31. A16U G63U  -4.13
32. A18C C49A U78G C114U  -4.02
33. A16C C53G G63U U132C  -4
34. A16G G117C  -3.97
35. G17U G44U C72G C85U U96A A121G C124G  -3.95
36. G17U U38A G61U U125A  -3.94
37. A16C G44C C49U  -3.94
38. A16U A50C C56A A95C  -3.91
39. A16U C28U C76G C82U U116A  -3.83
40. G17C C56U  -3.79
41. G17A G36U  -3.69
42. A18C G52U A74U A95U A121G  -3.61
43. G17U U55A G77C C86G C124U  -3.47
44. A16U G39U  -3.47
45. A16C G52C C62U  -3.32
46. A18C C40U A41G C56G  -3.24
47. A18U C72U C97U  -3.15
48. A16U G93U C123A U133C  -3.02
49. G17U C89G C104U  -2.94
50. G17U U78A  -2.93
51. G17A G69U U81A U116A  -2.91
52. G17C C80U A83U C115G  -2.85
53. G17U A95G U131A  -2.77
54. G17A U38G C115A U116A U131C  -2.73
55. A16C C56G  -2.73
56. G17C U54G C124U  -2.64
57. A18G G42A C72G G113A U132A  -2.54
58. A18G C88U G113U  -2.52
59. A16G G69U C73U C99U  -2.5
60. G17A G48A U87G G117A  -2.48
61. A18U C72G  -2.48
62. A16C C56A  -2.44
63. G17U C88U  -2.42
64. A18G G36C G45U U112A  -2.4
65. A18U C62U C89A U133A  -2.36
66. A16U G93A  -2.35
67. G17U G52C A74U G77U C123U  -2.34
68. A16G G48A G110A  -2.05
69. A18U A43U U59G G113A U125C  -2.05
70. C15U G63A  -2.04
71. A16C C56U  -2
72. A18C A91U  -1.86
73. G17U C72A  -1.86
74. G17A C124U  -1.79
75. A16U C62U C94U  -1.79
76. A18U A41G U106A C124G  -1.51
77. A18G A121U  -1.13
78. A18C C72U U92G A121G  -0.934
79. A18C U32C G120C  -0.763
80. G17U C115G  -0.423
81. G17A C124G  0.0623
82. G17C U106G C115G  0.318
83. A16G C124U  0.601
84. A18C C115G A119G  1.41
